Target: the molecule itself
Test: methyl-TROSY NMR spectra compared

B1: Bpa 45-153 (domain or fragment)
chain: AKVMRIGTMIKQLLEEVRAAPLDEASRNRLRDIHATSIRELEDGLAPELREELDRLTLPFNEDAVPSDAELRIAQAQLVGWLEGLFHGIQTALFAQQMAARAQLQQMRQ
B1 was tested, and the “stoichiometry N” value was 4 subunits.

— publication PMC13066552 (Nature Communications, 2026)
